Where no end group is shown, it is not given here.

The record followed here is patent publication US20130344125A1, “DRUG DELIVERY DEVICE” (priority 2010, published 2013).

A short description of this series: Particle size and size distribution of nano-lipobubbles by dynamic light scattering (Zetasizer NanoZS). In kind it is physicochemical. Particulars: 25° C., deionized water, extruded through 0.22 μm filter. On the procedure:
Particle size and size distribution of synthetic peptide ligands, non-targeted nano-lipobubbles and targeted nano-lipobubbles were analyzed by a Zetasizer NanoZS instrument (Malvern Instruments (Pty) Ltd., Worcestershire, UK) at 25° C. Samples were suspended in deionized water, and then extruded through a 0.22 μm pore size polycarbonate membrane filter prior to analysis. Each analysis was performed in triplicate.
The physicochemical properties of the targeted nano-lipobubbles in terms of size distribution and zeta-potential were examined using the standard method of dynamic light scattering measurement (Zetasizer NanoZS, Malvern Instrument). […] The diameter of synthetic peptide ligand (KVLFLS 9 SEQ ID NO: 2)) alone was in the range of 366±41 nm. When 1 mol % of the linear synthetic peptide ligand incorporated or coupled with circular non-targeted nano-lipobubbles to generate targeted nano-lipobubbles, the size distribution increased from 129 nm to 270 nm when it was compared with non-targeted nano-lipobubbles. This confirms the successfully incorporation of the synthetic peptide ligand on the surface of non-targeted nano-lipobubbles. The overall zeta potential or surface charge of the targeted nano-lipobubbles was −29 mV.

Take “KVLFLS (KVLFLS-NH2) [Synthetic 6 amino acid peptide ligand from human apolipoprotein A-1 targeting the SEC receptor]”: the “diameter (size distribution)” value amounted to 366±41 nm.
